B1: AtSEP3 (…3), wild type, in pGADT7 [Arabidopsis thaliana] / AtAP1 (APETALA1), in pGBKT7 [Arabidopsis thaliana] (parent complex)
chain 1: MGRGRVELKRIENKINRQVTFAKRRNGLLKKAYELSVLCDAEVALIIFSNRGKLYEFCSSSSMLRTLERYQKCNYGAPEPNVPSREALAVELSSQQEYLKLKERYDALQRTQRNLLGEDLGPLSTKELESLERQLDSSLKQIRALRTQFMLDQLNDLQSKERMLTETNKTLRLRLADGYQMPLQLNPNQEEVDHYGRHHHQQQQHSQAFFQPLECEPILQIGYQGQQDGMGAGPSVNNYMLGWLPYDTNSI
chain 2: not shown

Variants of: B1
Assay: yeast two-hybrid β-galactosidase activity assay; parent: 51; read off a plot

Variant	response
chain 1 L99A, chain 1 L101A	~24 β-galactosidase units
chain 1 L99A, chain 1 L101A, chain 1 L108A, chain 1 L115A	~25 β-galactosidase units
chain 1 L99A	~31 β-galactosidase units
chain 1 L99A, chain 1 L101A, chain 1 L108A, chain 1 L115A, chain 1 L116A	~15 β-galactosidase units
chain 1 L99A, chain 1 L101A, chain 1 L108A	~21 β-galactosidase units

Variants of: B1
Assay: yeast two-hybrid β-galactosidase activity assay; parent: 26; read off a plot

Variant	response
chain 1 L99A	~16 β-galactosidase units
chain 1 L101A	~14 β-galactosidase units

Other lines, results leading:

response	Variant
~8.7 β-galactosidase units	chain 1 L120A
~13 β-galactosidase units	chain 1 L115A
~11 β-galactosidase units	chain 1 L116A
~15 β-galactosidase units	chain 1 L108A
